The values that follow come from patent US12371675B2, “Process and microorganism for synthesis of adipic acid from carboxylic acids” (THE GOVERNING COUNCIL OF THE UNIVERSITY OF TORONTO, priority 2015, dated 2025).

The nature of series [1]: AR reductase activity, NAD(P)H oxidation at 340 nm. As to conditions: 10 mM, ND = no activity was detected; for Activity [U/mg protein] Adipaldehyde: 1.8% DMSO. In kind it is biochemical. As to the method:
Enzyme activity of purified ARs was measured spectrophotometrically in 96-well plates Reaction mixtures contained 100 mM HEPES buffer (pH 7.5), 0.4 mM NADH/NADPH, 10 mM adipaldehyde or butylaldehyde, and proteins (10 μg for adipaldehyde screen, 2 μg for butyraldehyde screen) in a final volume of 200 μL Reaction mixture for adipaldehyde screening contained 1.8% DMSO. Enzyme reactions were monitored by following the decrease in absorbance at 340 nm (ε340 nm=6,220/M·cm) due to oxidation of NAD(P)H to NAD(P)+.

Series [2] is described as follows: OYE hydrogenation activity screen, NADPH oxidation at 340 nm. It counts as biochemical. Particulars: 1 mM substrate, 0.25 mM NADPH, 2.5 μg protein; cut-off 0.05 U/mg protein; ND = not detected. The method, then: 25 putative OYE genes (Table 1) were cloned based on the Pfam domain of the FMN oxidoreductase family PF00724. Purified OYEs were screened for hydrogenation activity against acrolein, 2-cyclohexn-1-one, cis,cis-muconic acid, trans,trans-muconic acid, and 2-hexendioic acid. Substrate specificity was measured spectrophotometrically in 96-well plates by following incubation for 20 min at room temperature in the anaerobic chamber. Buffers and reagents were also degassed and sparged with Ar. Reaction mixtures contained potassium phosphate (50 mM and pH 7.0), NaCl (10 mM), NADPH (0.25 mM), various substrates (1 mM) and protein (2.5 μg) in a final volume of 200 μL. Enzyme reactions were monitored by following the decrease in absorbance at 340 nm (ε340 nm=6,200/M·cm) as a measure of the conversion of the cofactor NADPH to NADP+.

B1: BH2491: aldehyde reductase (AR) from Bacillus halodurans (protein)
chain: MLQGKTAIVTGASRGIGRATAMELARHGANVVVNYAGNKEKAEKVVAEIKELGVEAIAIQADVADSESVQAMVKETIDTFGAVDILVNNAGITRDNLFMRMKEEDWDAVIDTNLKGVFHCSKAVTRPMMKQRFGRIINVSSVVGAIGNAGQANYVAAKAGVIGLTKTLARELANRNITVNAVAPGFIETDMTGELPEDVKAQMLGQIPLARLGQPEEVAKAVRFLASDDASYLTGQTIHVNGGMVM
Turning to B1, in series [1], the “Activity [U/mg protein] Butyraldehyde” value is 0.108 ± 0.026 U/mg protein.

B2: RPA0021: aldehyde reductase (AR) from Rhodopseudomonas palustris (protein)
chain: MTPRNATVAVIGAGDYIGAEIAKKFAAEGFTVFAGRRNGEKLAPLVAEIEAAGGRIVARSLDARNEDEVTAFLNAADAHAPLEVTIFNVGANVNFPILETTDRVFRKVWEMACWAGFVSGRESARLMLAHGQGKIFFTGATASLRGGSGFAAFASAKFGLRAVAQSMARELMPKNIHVAHLIIDSGVDTAWVRERREQMFGKDALANPDLLMPPAAVAGAYWQLYQQPKSAWTFEMEIRPYGEKW
Turning to B2, in series [1], the “Activity [U/mg protein] Butyraldehyde” value came out at 0.116 ± 0.031 U/mg protein.

B3: PP_3370: aldehyde reductase (AR) from Pseudomonas putida (protein)
chain: MQYVKLGSTGLDISRLCLGCMTFGEPDAGTHPWTLGEDASRPIIRHAVEQGINFFDTANSYSAGTSEIILGKLLREFTRREETVIATKVFFPANMWEGASRPNEQGLSRKAIMANIDASLSRLGTDYVDLYQIHRWDYHTPIEETMEALHDVVKAGKARYIGASSMYAWQFAKAQQVAANHGWSRFVSMQNYLNLIYREEEREMIPLCLDQGVGLMPWSPMARGRLTRPHGQQTQRTRTDVSGQSFYEKTEVEDGRVIDVVEQIASERGVPMAQVALAWVLGRAGVSAPIVGASKPAHLDDALGALSLQLSEDEVARLQAPYVPHAVTGFK
With B3, in series [1], the “Activity [U/mg protein] Adipaldehyde” value is 0.437 ± 0.043 U/mg protein and the “Activity [U/mg protein] Butyraldehyde” value came out at 1.516 ± 1.382 U/mg protein.

B4: PSPTO_2097: aldehyde reductase (AR) from Pseudomonas syringae (protein)
chain: MIEHLKLAGKVALVQGGSRGIGAAIVNRLAKEGAAVAFTYINSEVNALEIQDSINANGGRALAIRADSADEKAIRQAVQTTAETLGRLDILVNNAGVLAIAPLNEFSMQDFDKTLAINVRSVFIASQEAARHMEEGGRIINIGSTNAERMPFAGGATYAMSKSALIGLTKGMARDLGPQGITVNNVQPGPVDTDMNPAQGEFAESLKALMALPRYGKSEEIASFVAYLAGPEAGYITGASLTIDGGFSA
In the case of B4, in series [1], the “Activity [U/mg protein] Adipaldehyde” value worked out at 1.046 ± 0.009 U/mg protein and the “Activity [U/mg protein] Butyraldehyde” value came out at 0.59 ± 0.597 U/mg protein.

B5: PA2918: aldehyde reductase (AR) from Pseudomonas aeruginosa (protein)
chain: MVDHSIKGKTVLITGGAKNLGGLIARDLAAHGAKAITIHYNSAASKADADATVAALQAAGAKAVALQGDLTSAAAMEKLFADAIAAVGKPDIAINTVGKVLKKPITEISETEYDEMSAVNSKSAFFFLREAGKHVNDNGKICTLVTSLLGAYTPYYAAYAGTKAPVEHFTRAASKEFGARGISVTAVGPGPMDTPFFYPAEGADAVDYLKNAAALSPFSKTGLTDIDDVVPFIRHLVSEGWWITGQTILINGGFSTK
On to B5, for which the “Activity [U/mg protein] Butyraldehyde” value in series [1] came to 0.137 ± 0.03 U/mg protein.

B6: CV3501: OYE protein from Chromobacterium violaceum ATCC 12472 (protein)
chain: MNADKLLTPLTMGAVALSNRVVMAPLTRLRNIEPGDVPGPLAKEYYRQRASAGLIVAEGTHISPTAKGYAGAPGIYSEEQVRAWSEVTGAVHQDGGKIALQLWHTGRISHRSLQPNGDAPVGPSAIQADSRTNIRAADGSLVREQCDTPRALEIEEIEDIIEDYRRAADNARRAGFDMVEIHGAHGYLIDQFLSPAANVRTDQYGGSVENRARFLLEVVDAVVAEWDADHVGIRISPLGIFNGVSNTDQLDMALYLAEQLAKRKLAFLHISEPDWAGGPTLDDGFRAELRQRYPGVIIGAGGYSAEKAETLLKKGFIDAAAFGRSYIANPDLVERLKQNAPLNPPKPDTFYGGGAEGYTDYPTL
With B6, the “Activity [U/mg protein] 2-cyclohexen-1-one” value in series [2] was found to be 0.07 U/mg protein.

B7: SCO0229: aldehyde reductase (AR) from Streptomyces coelicolor (protein)
chain: MQRQNWLITGVSTGLGRAFAQAALSAGHTVVGTVRSENDVRAFEELGPGHAHGRILDVTDGGAVNGVVAEVERSVGPLDVVVANAGYGLEGTFEETPLAEVRRQFDVNVFGAMATLQAALPHMRARRRGHLMAVTSMGGLMAVPGMSAYCGSKFALEGILEALGKEVAQFGIHVTAIEPGSFRTDWAGRSMTRAARTVADYDDLFAPIREARQKASGNQLGNPAKAGEAVVHITSVDQPPAHLVLGSDALRLVTAARTAVDEDIRAWEALSRTTDFPQGAQL
As for B7, in series [1], the “Activity [U/mg protein] Adipaldehyde” value turned out to be 0.362 ± 0.05 U/mg protein and the “Activity [U/mg protein] Butyraldehyde” value came out at 0.892 ± 0.847 U/mg protein.

B8: PA1146: aldehyde reductase (AR) from Pseudomonas aeruginosa (protein)
chain: MSDLHYWNYPTDILCGVGALEQLPRRCALAGARRPLLVTDPGMRALEPLRLVRECLERAGIDHDLFHELSSNPSLAEVQGGARRFEAGGHDALIALGGGSALDAAKGIALLSRDPHGLERFEWTQTLRSYPTLADYPPLGLPPLLALPTTAGTGSELGREAVLTDTQLGIKRVVGHRELLAACVFLDPRLTRGLPPALSAATGMDALTHHLEALFSPLYHPMSAGIALEGVRLVRQHLENAVRDGNDLAAREGMLVASASAAVAFQKGLGGVHALAHPLGARHHLHHGLLNAVLLPYVLLANRPAIEADAARLARYLELDEASFDGLLAWILELRARIGIPANLAALGLDGEDAQWVGEQALADLSSSATNALPLDARDYARIYRQAVAGTLA
Regarding B8, in series [1], the “Activity [U/mg protein] Adipaldehyde” value came to 0.696 ± 0.032 U/mg protein and the “Activity [U/mg protein] Butyraldehyde” value is reported as 1.68 ± 0.144 U/mg protein.

B9: TM_0111: aldehyde reductase (AR) from Thermotoga maritima (protein)
chain: MFKISFYLPTEIIFRVGAVDELEERAKKLGKKALIVTGRSSTKKTGLLQRVVDLLKKAGVESFVFDKIVPNPISDHVDEAAEIVRKEKIDFIIGLGGGSPIDSAKAISITAPNEGKFWDYVPVGGGKIPEKSIPVVAIPTTHGTGTEADPFAVITNPQTKEKVGIGYRNTFPVLSLVDPEVMKTLPKDQTAYTSMDAFYHAIEAFLNVNANPYSDVLALDAMKRIVTYLPVAYENGEDMEARTNLAWASTEAGITETLTGVIANHALEHGLSGFYPEITHGLGLCITGPYLFEYIFDHAYERLAIVGREVFGVYETDDRKAGRLAIKKLRDFQEMFGLNKRLSELGVKKEDIPKMAETGYRILNGVVVVTPGNLTAKDMEEIFNRCY
B9: the “Activity [U/mg protein] Butyraldehyde” value in series [1] turned out to be 1.055 ± 0.43 U/mg protein.

B10: RHA1_ro08443: aldehyde reductase (AR) from Rhodococcus jostii (protein)
chain: MPEIVKFEMPRVETVVQGVGAVREIGAELDRRDLKRVFLVTGHSVGSSEAFAALASDLGDRVVGIFDQVKAHNPVELIVELITAAKSAQAEAFVAVGGGSPVDAAKLAAIGLCEGSESVEDLARNYLVFEYPNTIHQKPLTGTPMPVFAVPTTLSAAEWDGFAGSVDHTRDTKDLTVYLEATPQVVFLDPEFCAHTPRDLWATTGVRALDHAVETAYAKNAHPFTTALANGALTMLAENLPRSVKDPHDYDAALKCLEAAWMSIIGVHNVSLGLSHAIGHQLGAVGIPHGVTSCIMLPHVMRFLEPVTSAEQARMAQSLAQVQGDGEDLPAADRLERILDELGVPRRVSEFGVGRDKMDGVARATLGDIVVRESPRPVDETVVYGLLETVW
In the case of B10, the “Activity [U/mg protein] Butyraldehyde” value in series [1] amounted to 0.188 ± 0.142 U/mg protein.

B11: SFyv_1886: aldehyde reductase (AR) from Shigella flexneri (protein)
chain: MHYQPKQDLLNDRIILVTGASDGIGREAAMTYARYGATVILLGRNEEKLRQVASHINEETGRQPQWFILDLLTCTSENCQQLAQRIVVNYPRLDGVLHNAGLLGDVCPMSEQNPQVWQDVMQINVNATFMLTQALLPLLLKSDAGSLVFTSSSVGRQGRANWGAYAASKFATEGMMQVLADEYQQRLRVNCINPGGTRTAMRASAFPTEDPQKLKTPADIMPLYLWLMGDDSRRKTGMTFDAQPGRKPGISQ
With B11, the “Activity [U/mg protein] Butyraldehyde” value in series [1] worked out at 0.124 ± 0.042 U/mg protein.

B12: CV_2177: aldehyde reductase (AR) from Chromobacterium violaceum (protein)
chain: MRRLEGKQALITGGTSGIGLETAKQFLAEGAKVAITGRSEAGLAQANEVLGGRALLLKSDAGSLDDQRALPAQLRSHGWSRLDAAYLNAGDVTHLPLADWSEADFDRVMAVNLKGPFFLLQALSPLLANPSSVILCGSVGARIGVPSSSAYAASKAGLLSLARTLSAEWLDRGIRVNGLSPGPTHTPAFGKLGMPEDELPALRDRIRKLVPLGRLGRPEELAKAAVFLASDESSYMLGSELLVDGGVGNV
For B12, the “Activity [U/mg protein] Butyraldehyde” value in series [1] is reported as 0.151 ± 0.054 U/mg protein.
